Results reported in paper PMC4975651 (Molecular cell, 2016).

Molecular target: ZMYND8-PBP (93-426aa) (human)
Assay: ITC

Kd: ~5.4 µM
Binder: ARTKQTARKSTGGKA (monomethyl-lysine at K4; acetyl-lysine at K14) [H3K4me1K14ac peptide]
